Laboratory results reported in the DeepSol protein solubility set.

Experiment: soluble on expression in E. coli; label from the status in PepcDB or PDB records

Row | Sequence | soluble on expression in E. coli
1 | MGSDKIHHHHHHMKKYSLTPAMLEVCKEYNFFSDVSGFMPLTSENIKEIKIGKKFAYSHQDNNKPTHQKLSKIIFENFLSNIPLNQSAIAYVKKKSYFDFIEPHRNNYFFLRIDLKDFFHSISEDLLKRTLSDYFSSESLSETIKQSNIDAIFTFLTVNLKSDSSNVKFLDKKILPIGFPLSPNLANIVFRKTDLLLEKLCDMHGVTYTRYADDMLFSSRGIMEKNLLFRKNNNYKKPYIHSDNFLSEIKYLVSIDGFFINHNKTIKSVNTLSLNGYTISGTNFPDIEGKIRLSNKKTKIIEKVIHEININPDDKVTFEKCFKKEFPKPKYEKNRDNFINNLCTIKINQKLLGYRSYLISIIKFNNKFNCISESSEDKYNTLLSKIENVIKKRIK | not soluble
2 | MSLSPKVAWWCRHPLTFLMEAADDLCYSIVDLEDGFHMGYLPFAAVQDKLQSIADIDLNQYEGSPAETIKRLRAKAINRLVKEVAQLFLDHEPDILAGKFDQSLVELSRFSPQLKEIETMTTNAVFHHPNVVRIKIAGFEVLGDLLTDFLTSVLEKQPRPKGKLLKFMLPPEHQIAPDEDNYSKILKVTDYIAGMTDLQATLLYQQLRGEGHHHHHH | soluble
3 | MGSDKIHHHHHHMSKPGAELEEVFSSVQGEGMLIGLRQVFIRFRGCNLTCDYCDTPAGTPAEPCRIEQTPGRRDFVPADNPVSLDRVAALVEGWQRGWPGVHDSISITGGEPLLRHDILMQWLPVLREHLPVYLETNGVMHAALGLVINHVDIIGMDIKIPSTSGCTDLWDDHRQFLEIANTRRAFIKIVVGEETEDWEITRASEIIAGVNRDIPLILQPVTRAGDTLGIKPVKALELQELACRYLAEVRIIPQTHRFMGQL | not soluble
4 | GKKQEPFEQVTIDIEEQHQGSVMEALGIRKGEVKDMIPDGKGRTRLEYVIPSRGLIGFRNEFMTMTSGTGLLYSSFSHYDDVKLGEIGQRKNGVLISNATGKALAYALFGLQERGKLMIEHGVDVYEGQI | not soluble
5 | TWILTADSPSLLGTVDVVTRYLFEQRCYVTEHHSFDDRLAQRFFIRVEFRAGDGFDEASFRAGLAERVAPFGMRTELTAPGYRSQVAIMVSKADHCLNDLLYRQRIGQLPMDVVAVISNHPDLEPLARWHGIPYHHFPLDPNDKPAQEARVWQVLEESGAELVILARYMQVLSPELCRRLDGWAINIHHSLLPGFKGAKPYHQAYQKGVKLVGATAHYINNDLDEGPIIAQGVETVDHAHYPEDLIAKGRDIECLTLARAVGYHIERRVFLNANRTVVL | not soluble
6 | MSRTLTPLLDRVCEPQDLRAFPESDLARLADELRAETIDVVSVTGGHLGAGLGVIELTVALHYVFNTPEDRIIWDVGHQAYPHKILTGRREKIRTLRQEGGLSGFTKRSESVYDPFGAGHSSTSISAGLGMAVASALKAEKRRNIVAVIGDGAMSAGMAYEAMNNAGALNARLIVVLNDNDMSIAPPTGAMSAHLARLVSRPAYRSLRERVKVLGEKLPKFFLDKARRSEEFARGFLVGGTLFEELGFYYVGPIDGHNLKHLLPVLKNVREYPTGPVLIHVVTHKGKGYAPAEASLDKYHGVNRFDIITGKQVKASSNVLPYTKVFSKALREEASYDDKIVAITAAMPTGTGLDFFAEKFPERMFDVGIAEQHAVTFAAGMACEGYKPFVAIYSTFLQRAYDQIIHDVSIQKLPVRFAIDRAGFVGADGATHAGSFDIVFLTTLPEFVVMAPSDEVELMHMVRTAAAYDQGPISFRYPRGEGIGMDLPQRGEILEIGKGRILHEGNRIALVCFGTRISEVLVAADELSAEGLSTTVADARFAKPLDKDLMRRLAREHEVLVTIEEGAIGGFGAHLLQFLAQEGLLEHGLKVRTLKLPDEYLNHGSQEKVLSRIGLDAVGIVNTVFSALGRKIRTVQRVRV | not soluble
7 | MQQNIQYTYSSDPRSGGNQNQQLHGISQFQQNSYQPTTYSNSNANNFHSSNSATFIPNSVTQTPQRRMGEEKSLVNMLDAYFIDSTTPSTSTSWNNQQPVQMSSIQQSVGSYNQQIPQLKVGDVDLQVEGMNVKLSSSPDKGEKDRVKKARQAEAARMRYHRLSNEEKRELNLKRTLAQKRKRQREKEMEELESILRETNDIQEDPDITEQLREKRMRAKWAEAARTRYARMTPEERRAHNTRRRMRQMQNAMSAIKACGMATGDPQKDDEAVRLHIKTQNAKKAEAARQRYHRMNDDEKRVYNQRRTEAFRRRRMEEEMLLAMPIGRINGEALDRAQQIVVRNAKRAEAARLRYQRMTPDQRKVAKQEPKEESWPSHEQSDTQIDHDLDLGDSYNQKRYTPKRRRNEMDDMISAGQMAVGSSGTITMGTGTPAKKDDMDALSSLERDVVKRTQHAQQILLRQRANQSSGTPRSVTPPPQAYIISNGQQQHQQLVGNQGNNGIGQHQVLHQGHMQQQQIQVSHQQSSQSIPQNIYTSGMIIQNQGQQQQGQQQQQGQSQQILNNPYRT | not soluble
8 | MVSVSEIRKAQRAEGPATILAIGTANPANCVEQSTYPDFYFKITNSEHKTELKEKFQRMCDKSMIKRRYMYLTEEILKENPNVCEYMAPSLDARQDMVVVEVPRLGKEAAVKAIKEWGQPKSKITHLIVCTTSGVDMPGADYQLTKLLGLRPYVKRYMMYQQGAFAGGTVLRLAKDLAENNKGARVLVVCSEVTAVTFRGPSDTHLDSLVGQALFGDGAAALIVGSDPVPEIEKPIFEMVWTAQTIAPDSEGAIDGHLREAGLTFHLLKDVPGIVSKNITKALVEAFEPLGISDYNSIFWIAHPGGPAILDQVEQKLALKPEKMNATREVLSEYGNMSSACVLFILDEMRKKSTQNGLKTTGEGLEWGVLFGFGPGLTIETVVLRSVAI | soluble
9 | MSQRKAQNDYQKIIRSLSDRIVEAQTPIRVLDAIKWDDGIRQDFLKGRGKHAPKVDRGYYDSRPLAFDASAKKQEFQNIERDITRQLGQFNPVGQIMRRMCKEYRMVIRMLEARGTPDLGLISQELYGSASDAFHAGDPTLADLGLMLSDYLNNIADRGDLKDEPKTLTAKEVVPILQARLNTVFGEEEGTIRVFESDGIVADAAAGADYIKVRADALFNERDVRALEVHEGLVHVGTTLNGLSQPICTFLAKGPPSSTVTQEGLAILMEVIAFASYPTRLRKLTNRTRAIHMAEEGADFLDVFHFYREQGYSLEDSYQNASRVFRGSTPDGLPFTKDLSYLKGFILIYNYIQLAVRKGKLEQIPLLFCGKTTLEDMRTLRQLVDEGLVAPPKYLPPQFRDLNALSAWMCFSNFLNHLSLDRIEADYANILAAALEHHHHHH | not soluble
10 | MGSDKIHHHHHHMIFKEFGNKNMPTIVFLHGGGLSFWSFKEELSALKNSYRIVTPIIDGHGEDYNNTFISISNSAKHVINYIQESCNGHVFCICGLSLGAQILVEVLSLKHNISEYAVIESALVYPIKLSLNLMVAMNSLAYGLIKKKWFAKLQAKTLNVPQELFETYYKESSKMTKETLINITKSNGSYPMPNSICNTTASTLILVGERELSIMKKSAKLLNETIDNSILNIIPKAKHGEISLAYPKQYLDLLNKLFNSKK | not soluble
11 | MGSDKIHHHHHHSVQSIINNPAVDPHDYEPTTKVGKSVASADLVVASGIGYDGWMDKVVKSADKSKNYLRVADDLMNKKEGDNEHIWYDPRTMSKLANTLADKFAKKDPADKATFKANAKKYIASLDNLNTLINKLKSKVNGQLVDVSEPVFGYALDYLGYKVNDDHFSKSTEDGTDYSAKDIHGIETDIKEKKIAFFVNNIQASSKTVNQLVKLAEQNNVPVLKVTETLPKGKNYRTWMTSQYQQLEKIQDQATNSAK | not soluble
12 | MAHHHHHHMLNILSYSKLFSSCGRQAVTCPKGCNSYRHVSTGSDECLFTDGRASMGREFTLQPVEMEPVFKVHRPYSSSNCDNPISEDDLPYECGASSDCNTRSSTLRERAVCDEPLAKGLQNTTASTPYRVSWYERGAVSPSKRFVYWAFRRLWDLPPDAREYYRRMLYQEVRAARYVNQTWDCFMMVVDGYRKGKWILKKYGIKIDEGLIPKPYNNFWEETTHEERVWAHRRSHQMKDLQALQREDDNLVFGAHIMDRREVTYGSVKNLQTGMQGGTPVHAHDLPAPFEADVKMSLHEEDISSALMSSIEDDKLWNPVLRSRVHNKLARDEAELYGFEDEDDGDDRS | not soluble
13 | MRFEDIGISKVDKVCLVDRLGCQENLVGTVHVTTTHIIFRAENGSKELWLATGLISSVEKGTLTAAGCMLVIRCKHFQVITLLISRDKSCQDLYETLQRAAKPVSVNVTELLAFENREPVEDVRGWRRLDWNSEMTRQGITKSQWTESNINEGYTICDTYPNKLWFPTAASTSVLLGSCKFRSRGRLPVLTYFHQQTEAALCRCAQPLTGFSARCVEDEKLMELVGKANTNSDNLFLVDTRPRVNAMVNKVQGKGFEDERNYSNMRFHFFDIENIHVMRASQARLLDAVTKCRDVTEYWKTLEASGWLKHVRSVVECSLFLAESISRGTSCVVHCSDGWDRTSQVVALCQLLLDPYYRTIHGFQVLIEKDWLGFGHKFDDRCGHVGALNDEAGKEVSPIFTQWLDCIWQIMQQKPRAFQFNERYLIEMHEHVYSCQFGTFIGNCDKDRRDLNLSKRTKSLWTWMDARHDDYMNPFYSPTAHVALLDLDTRAARFTVWTAMYNRFDNGLQPRERLEDLTMAAMEHVGVLESHVAQLRTRLAELKTQQNQQITSTNTPTNMVDSGMSSATDDLKNLSLSHPLDPLSSTLPILERATSQESGVMDSSLYYPDEALTKYSLKWQPLRGADRCSNPACRGEFSSTIERRIHCHLCGMIFCRRCLKVSADERERVCDKCKTD | not soluble
14 | MSLGQKGHKDSLYPCGGTPESSLHEALDQCMTALDLFLTNQFSEALSYLKPRTKESMYHSLTYATILEMQAMMTFDPQDILLAGNMMKEAQMLCQRHRRKSSVTDSFSSLVNRPTLGQFTEEEIHAEVCYAECLLQRAALTFLQDENMVSFIKGGIKVRNSYQTYKELDSLVQSEGHHHHHH | not soluble
15 | ILGYSYGYNGMEANVSKSDYEKHMSDLDTKKIKQDIKKAEKEADITIVMPQMGIEYQKKPTTEQVMLYHSMIKWGADIIFGGHPHVVEPSEVIKKDGQKKFIIYSMGNFISNQRLETVDDIWTE | not soluble
16 | MSEQIRLENLTIFMQRRAVKHVYLRVHPPDGRVTLVAPTGMRLEVVRAFVTAKLDWIHKQQAKLQAQVREVPRQFIGGESHTVWGRHYVLQVVEKSAGPCVLMDQQTITLQVRPGSDLFKRAAVMHAWHKSLLHAVVPDLIGKWQDRLGVSVSAYFLQQMKTRWGSCNTRRRHIRLNTDLVRKPQDLLEYVVVHELVHLIEPSHNKRFVGLMDQHYPAWREATAELNQIPLSAIRPRGLEHHHHHH | not soluble
17 | GPGSMAKWNALSAEIEAARASGDHTKLLAHVHVGLQMLQEIGATNAPIQCESLLCMEASQAHYKMMQYDEALQCAERACESLLRGCKAELQDKAQIAEIEVFMGFVLCKQGGHSAAVEAQELLQKVLHWIDVDAKSAMPMQAVAAVNLRRSVLTGLGLSTTVQATTLASKGETAEAKVLYAKGLDTLIEALNQHIDENDVELVKMTLEAILTSFEGLDDVSQAVATCRKYISWCRRHDDASGVADGESMLTALCARQKIENPLEAEKAKETEEATK | soluble
18 | MFYLSELEHSLRVPPHLLNLPLEDAIKSVLQNVFLDKVLADLGLCVSIYDIKSVEGGFVLPGDGAATYKVGLRIVVFRPFVGEVIAAKFKESDANGLRLTLGFFDDIYVPAPLMPKPNRCEPDPYNRKQMIWVWEYGEPKEDYIVDDACQIKFRVESISYPSVPTERAEDAKPFAPMVVTGNMDDDGLGPVSWWDSYEQVDQEE | soluble
19 | MGKTYNVTRIIKLEVRDRIIPPTMKLPEGVVTSIGSNLTITCRVSLRLPTTDADVFWISNGMYYEEEDEDGDGRISVANKIYMTDKRRVITSWLNINPVKEEDATTFTCMAFTIPSISKTVTVSIT | not soluble
20 | SSTWLSEAEMIALAGLLQMSQGEQTPNCVASSLPSTSCPDPVSVSEDPGPSGDQSCSGTDT | soluble
